# Measurements from patent US20230192818A1.
# Where a chain is given by its changes, count along the chain named.
# B1: 12-10 (antibody, V domains shown)
# VH: QVQLVESGGGVVQPGRSLRLSCAASGFIFRSYAMHWVRQAPGKGLEWVAVISYDGSIKYYADSVKGRFTISRDNSKNTLYLQMNSLRAEDTAVYYCARTRGGSYYGAFDYWGQGTLVTVSS
# VL: EIVLTQSPATLSLSPGERATLSCRASQSVNSDLAWYQQKPGQAPRLLIYDASNRATGIPARFSGSGSGTDFTLTISSLEPEDFAVYYCQQRTDWPPATFGGGTKVEIK
# B2: 12-19 (antibody, V domains shown)
# VH: QVQLVESGGGVVQPGRSLRLSCAASGFAFSSYAMHWVRQAPGKGLEWVAVISYDGTYEYYADSVKGRFTISRDNSKNTLYLQMNSLRAEDTAVYYCARSLGGSYFSGMDVWGQGTLVTVSS
# VL: B1 VL with V29I, N30S, S31R, D32Y, A51V, R91S, T92S, D93N, P96L, A97F
# B3: 12-16 (antibody, V domains shown)
# VH: B1 VH with I57S, R100L, Y105F, G106A, Y110I
# VL: B1 VL with V29L, N30D, D32Y, A51V, T92R, D93G, A97V
# B4: 12-29 (antibody, V domains shown)
# VH: B1 VH with I28S, R30S, S31N, A33G, S56N, I57N, T99S, R100K, A107P, Y110D
# VL: B1 VL with S28I, V29I, N30S, D32Y, A51T, Q90V, T92S, D93N, A97L
# B5: 12-27 (antibody, V domains shown)
# VH: B1 VH with I28S, R30G, S31G, A33G, I57T, T99P, Y105K, G106D, Y110I
# VL: EIVLTQSPATLSLSPGERATLSCRASDTVSSYLAWYQQKPGQAPRLLIYDTSNRATGIPARFSGSGSGTDFTLTISSLEPEDFAVYYCQQRASWPLSFGGGTKVEIK
# B6: 12-20 (antibody, V domains shown)
# VH: B1 VH with I28S, R30G, S31G, A33G, I57N, T99S, R100K, A107P
# VL: B1 VL with V29L, N30G, S31N, D32Y, A51S, T92N, D93T, P96G, A97V
# B7: 12-21 (antibody, V domains shown)
# VH: QVQLVESGGGVVQPGRSLRLSCAASGFSFGGYGMHWVRQAPGKGLEWVAVISYDGSNKYYADSVKGRFTISRDNSKNTLYLQMNSLRAEDTAVYYCARPKGGNYWNAFDIWGQGTLVTVSS
# VL: EIVLTQSPATLSLSPGERATLSCRASQSVNSDLAWYQQKPGQAPRLLIYDASNRATGIPARFSGSGSGTDFTLTISSLEPEDFAVYYCQERSLFGGGTKVEIK
# B8: 12-31 (antibody, V domains shown)
# VH: B7 VH with S28T, G30S, G31Y, G33T, I51T, K100L, N103S, W105F, N106A
# VL: EIVLTQSPATLSLSPGERATLSCRASQSIGSYLAWYQQKPGQAPRLLIYDVSNRATGIPARFSGSGSGTDFTLTISSLEPEDFAVYYCQQRDSFTFGGGTKVEIK
# B9: 12-9 (antibody, V domains shown)
# VH: QVQLVESGGGVVQPGRSLRLSCAASGFTFSSYGMHWVRQAPGKGLEWVAVISYDGTTEYYADSVKGRFTISRDNSKNTLYLQMNSLRAEDTAVYYCARPSSGSYLGFFDYWGQGTLVTVSS
# VL: EIVLTQSPATLSLSPGERATLSCRASQSVSTSLAWYQQKPGQAPRLLIYDATNRATGIPARFSGSGSGTDFTLTISSLEPEDFAVYYCQRRTDWPPTFGGGTKVEIK
# B10: 12-36 (antibody, V domains shown)
# VH: B7 VH with G30N, G31N, K58D, K100N, G101S, N103S, W105S, A107Y, I110Y
# VL: B9 VL with S28G, V29I, S32Y, T52S, R90Q, T92R, D93R
# B11: 12-11 (antibody, V domains shown)
# VH: B7 VH with K58E, R98K, P99S, K100Y, G101S, N103S, W105S, N106S, A107Y, I110Y
# VL: B9 VL with S30G, T31S, S32Y, T52V, R90Q, T92F, D93T, P96T
# B12: 12-22 (antibody, V domains shown)
# VH: B9 VH with T56N, T57H, S100K, L105V, G106S, F107Y
# VL: B9 VL with S30R, T31H, S32H, T52S, R90E, T92S, P96I
# B13: 12-17 (antibody, V domains shown)
# VH: B9 VH with S30G, T56N, T57H, S100H, L105T, G106A, F107Y
# VL: B9 VL with T31K, S32F, T52S, Q89H, R90Q, R91H, T92S, P96L
# B14: 12-39 (antibody, V domains shown)
# VH: B9 VH with G33A, T56N, T57H, P99A, S100H, L105F, G106S, F107H
# VL: EIVLTQSPATLSLSPGERATLSCRASESISTYLAWYQQKPGQAPRLLIYDASNRATGIPARFSGSGSGTDFTLTISSLEPEDLAVYYCQQRRNSLTFGGGTKVEIK
# B15: 12-28 (antibody, V domains shown)
# VH: B2 VH with A28T, Y57N, V64E, S99A, L100H
# VL: B5 VL with D27Q, T28S, S30R, S31H, Y32H, T51A, R91S, A92G, S97T
# B16: 12-13 (antibody, V domains shown)
# VH: B7 VH with G30S, G31T, K100L, G101S, N103S, N106S, A107W, I110P
# VL: B1 VL with N30G, D32Y, S52V, T92N, D93S
# B17: 12-15 (antibody, V domains shown)
# VH: B7 VH with K100Y, G101S, N103S, W105I, N106S, A107W, I110Y
# VL: B1 VL with N30S, D32H, A51V, Q90V, T92S, A97L
# B18: 12-34 (antibody, V domains shown)
# VH: B1 VH with I57S, T99P, R100S, Y105F, G106D, A107P
# VL: B8 VL with I29V, S31N, Y32F, V51A, Q90H, D92R, S93L, F94L
# B19: 12-43 (antibody, V domains shown)
# VH: B9 VH with T28I, T56S, T57N, S100R, G106S, F107A
# VL: B5 VL with D27Q, T28S, S30G, S31K, Y32S, A92G, W94F, S97T
# B20: 12-24 (antibody, V domains shown)
# VH: QVQLVESGGGVVQPGRSLRLSCAASGFTFSNFPMHWVRQAPGKGLEWVAVISYDGNNKYYADSVKGRFTISRDNSKNTLYLQMNSLRAEDTAVYYCAKDHGDHYFDYWGQGTLVTVSS
# VL: B14 VL with E27Q, I29F, S30G, T31D, Y32S, L83F, R92S, N93I, S94P, L95I
# B21: 12-42 (antibody, V domains shown)
# VH: QVQLVESGGGVVQPGRSLRLSCAASGFTFGSYGMHWVRQAPGKGLEWVAVISYDGSHKYYADSVKGRFTISRDNSKNTLYLQMNSLRAEDTAVYYCARALGGNYYYFDYWGQGTLVTVSS
# VL: EIVLTQSPATLSLSPGERATLSCRASQSVDSRLAWYQQKPGQAPRLLIYDTSNRATGIPARFSGSGSGTDFTLTISSLEPEDFAVYYCQQRSSNWTFGGGTKVEIK
# B22: 12-26 (antibody, V domains shown)
# VH: QVQLVESGGGVVQPGRSLRLSCAASGFTFSNYAMHWVRQAPGKGLEWVAVISYDGSNEYYADSEKGRFTISRDNSKNTLYLQMNSLRAEDTAVYYCAKSGSGSYFSPFDYWGQGTLVTVSS
# VL: B14 VL with E27Q, I29V, Y32S, A51I, L83F, N93S, S94G
# B23: 12-37 (antibody, V domains shown)
# VH: QVQLVESGGGVVQPGRSLRFSCAGTGFTFSSYAMHWVRQAPGKGLEWVAVISYDGSNQYYADSVKGRFTISRDNSKNTLYLQMNSLRAEDTAVYYCARSRSGSYLAYFDYWGQGTLVTVSS
# VL: B14 VL with V3E, I29V, T31E, Y32S, L83F, R92T, N93H, S94G, L95V
# B24: 13-1 (antibody, V domains shown)
# VH: B21 VH with G30S, G33S, S56R, H57N, K58Q, R98K, A99G, L100Y, F107M, Y109G
# VL: B21 VL with D30G, S31D, R32F, S93I, N94R, W95G
# B25: 12-32 (antibody, V domains shown)
# VH: B22 VH with S30G, N31T, S56N, E58K, E64V, S99T, G100M, P107A, Y110I
# VL: B8 VL
# Assays:
# [1] = molecular target: biotinylated SARS-CoV-2 S1 variant B.1.351 (Example 5) (SARS-CoV-2) (UniProt P0DTC2); assay: phage ELISA screening
# [2] = molecular target: biotinylated SARS-CoV-2 S1 variant P.1 (Example 5) (SARS-CoV-2) (UniProt P0DTC2); assay: phage ELISA screening
binder,measurement,setting,value
B1,ELISA,[1],19.7
B2,ELISA,[1],13.8
B3,ELISA,[1],17
B4,ELISA,[1],7.55
B5,ELISA,[1],8.83
B6,ELISA,[1],13.3
B7,ELISA,[1],11.7
B8,ELISA,[1],7.01
B9,ELISA,[1],19.9
B10,ELISA,[1],5.51
B11,ELISA,[1],18.8
B12,ELISA,[1],10.5
B13,ELISA,[1],16.2
B14,ELISA,[1],5.09
B15,ELISA,[1],8.63
B16,ELISA,[1],18.1
B17,ELISA,[1],17.6
B18,ELISA,[1],5.81
B19,ELISA,[1],4.82
B20,ELISA,[1],9.63
B21,ELISA,[1],4.93
B22,ELISA,[1],9.05
B23,ELISA,[1],5.5
B24,ELISA,[2],22.2
B25,ELISA,[1],6.88
